Data reported in PMC8187606, “Biophysical and structural studies reveal marginal stability of a crucial hydrocarbon biosynthetic enzyme acyl ACP reductase” (Scientific Reports, 2021).

Molecular target: the molecule itself
Assay: SEC; Superdex 200 Increase 10/300 GL; AAR 1.5 mg/mL; 50 mM Tris, 100 mM NaCl, 1 mM DTT, pH 7.4; without GdnHCl; oligomer of unstated size

B1: Acyl-ACP reductase (AAR) from Synechococcus elongatus PCC 7942, 6-His tagged recombinant (enzyme)
chain: MFGLIGHLTSLEQARDVSRRMGYDEYADQGLEFWSSAPPQIVDEITVTSATGKVIHGRYIESCFLPEMLAARRFKTATRKVLNAMSHAQKHGIDISALGGFTSIIFENFDLASLRQVRDTTLEFERFTTGNTHTAYVICRQVEAAAKTLGIDITQATVAVVGATGDIGSAVCRWLDLKLGVGDLILTARNQERLDNLQAELGRGKILPLEAALPEADFIVWVASMPQGVVIDPATLKQPCVLIDGGYPKNLGSKVQGEGIYVLNGGVVEHCFDIDWQIMSAAEMARPERQMFACFAEAMLLEFEGWHTNFSWGRNQITIEKMEAIGEASVRHGFQPLALAI
notes: Acyl-ACP reductase (AAR), Synechococcus elongatus PCC 7942, codon-optimized aar gene in pQE30; domains described as NTD 1-130, mid-domain 131-264, CTD 265-341; also called Acyl-acyl carrier protein reductase; source: E. coli M15 (pQE30AAR), purified from the soluble fraction (Ni-NTA, gel filtration)
B1: binds.
